{"source": "patent US20200231691A1", "about": "(Hoffmann-La Roche, published 2020)", "key": {"human OX40 [1]": {"target": "T1, human OX40 (human, UniProt P43489 29-277)", "T1 construct": "Recombinant on HeLa reporter cells in the NFkB assay; also called huOX40; CD134", "T1 sequence": "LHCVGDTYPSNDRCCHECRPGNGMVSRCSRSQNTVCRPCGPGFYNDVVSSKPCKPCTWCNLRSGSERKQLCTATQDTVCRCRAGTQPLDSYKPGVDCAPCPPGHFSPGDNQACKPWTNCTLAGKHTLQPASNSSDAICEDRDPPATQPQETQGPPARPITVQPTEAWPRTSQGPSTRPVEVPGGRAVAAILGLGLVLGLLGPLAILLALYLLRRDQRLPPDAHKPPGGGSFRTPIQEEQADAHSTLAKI", "assay": "flow cytometry, activated human OX40+ CD4+ T cells", "description": "(§1) For discrimination of live and dead cells, samples were stained with Zombie Aqua Viability Dye (Biolegend, Cat. No. 423102) in DPBS for 10 minutes at room temperature. […] After three washes with excess FACS buffer, cells were stained for 30 minutes at 4° C. in the dark in 25 μL/well 4° C. FACS buffer containing a mixture of fluorescently labeled anti-human CD4 (clone RPA-T4, mouse IgG1 k, BioLegend, Cat. No. 300532), anti-human CD8 (clone RPa-T8, mouse IgG1k, BioLegend, Cat.-No. 3010441) and Fluorescein isothiocyanate (FITC)-conjugated AffiniPure anti-human IgG Fcγ-fragment-specific goat IgG F(ab′)2 fragment (Jackson ImmunoResearch, Cat. No. 109 096 098)."}, "human OX40 [2]": {"target": "T1, human OX40", "assay": "flow cytometry, activated human OX40+ CD8+ T cells", "description": "as §1"}, "[3]": {"target": "T2, biotinylated monomeric human OX40 antigen Fc(kih) fusion molecule (human, UniProt P0DOX5 223-449 = IgG part, biotinylated at the C-terminal Avi tag (BirA))", "T2 construct": "also called biotinylated human OX40; hu OX40", "assay": "ELISA, biotinylated human OX40 on neutravidin plates, Fab supernatants, anti-Flag/HRP", "description": "Selections were carried out over 3 or 4 rounds using constant antigen concentrations of 100 nM. […] In rounds 2 and 4, in order to avoid enrichment of binders to neutravidin, capture of antigen: phage complexes was performed by addition of 5.4×10⁷ streptavidin-coated magnetic beads. […] Fab-containing bacterial supernatants were added and binding Fabs were detected via their Flag-tags using an anti-Flag/HRP secondary antibody. […] They were bacterially expressed in a 0.5 liter culture volume, affinity purified and further characterized by SPR-analysis using BioRad's ProteOn XPR36 biosensor."}, "murine EpCAM": {"target": "T3, murine EpCAM (murine, UniProt Q99JW5 24-315)", "T3 construct": "Stably expressed on CT26muEpCAM cl25 cells; also called muEpCAM; CT26muEpCAM cells", "T3 sequence": "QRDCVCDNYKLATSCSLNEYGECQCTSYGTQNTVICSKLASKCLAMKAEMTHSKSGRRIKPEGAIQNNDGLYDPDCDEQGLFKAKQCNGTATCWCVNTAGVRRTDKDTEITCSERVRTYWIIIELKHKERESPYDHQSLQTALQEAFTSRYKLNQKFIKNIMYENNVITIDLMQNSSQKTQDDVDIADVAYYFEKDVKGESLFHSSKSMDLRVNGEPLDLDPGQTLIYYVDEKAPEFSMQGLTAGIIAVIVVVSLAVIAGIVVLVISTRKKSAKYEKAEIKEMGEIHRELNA", "assay": "flow cytometry, muEpCAM+ CT26muEpCAM cells", "description": "(§2) The binding to cell surface murine EpCAM was analysed using mouse EpCAM-positive CT26muEpCAM c125 cells, which stably expresses murine EpCAM. The specificity of binding was analysed by determination of binding to muEpCAM-negative cell line CT26muFAP, which stably expresses murine FAP.\n(§3) For analysis of binding of the antigen binding molecules, 0.5×10⁵ CT26muEpCAM or 0.5×10⁵ CT26muFAP cells were added to wells of round-bottomed suspension cell 96-well plates (greiner bio-one, cellstar, Cat. No. 650185). For discrimination of live and dead cells, samples were stained with Zombie Aqua Viability Dye (Biolegend, Cat. No 423102) in PBS for 10 minutes at room temperature. Cells were then washed once with FACS buffer and subsequently stained for 90 minutes at 4° C. in the dark in 50 μL/well 4° C.\n(§4) Plates were finally resuspended in 85 μL/well FACS-buffer and acquired the same day using 4-laser LSR-II cytometer (BD Bioscience with DIVA software)."}, "murine FAP": {"target": "T4, murine FAP (murine, UniProt P97321 1-761)", "T4 construct": "whole, on cells; CT26muFAP served as the muEpCAM-negative specificity control cell line; also called muFAP; CT26muFAP cells", "T4 sequence (looked up)": "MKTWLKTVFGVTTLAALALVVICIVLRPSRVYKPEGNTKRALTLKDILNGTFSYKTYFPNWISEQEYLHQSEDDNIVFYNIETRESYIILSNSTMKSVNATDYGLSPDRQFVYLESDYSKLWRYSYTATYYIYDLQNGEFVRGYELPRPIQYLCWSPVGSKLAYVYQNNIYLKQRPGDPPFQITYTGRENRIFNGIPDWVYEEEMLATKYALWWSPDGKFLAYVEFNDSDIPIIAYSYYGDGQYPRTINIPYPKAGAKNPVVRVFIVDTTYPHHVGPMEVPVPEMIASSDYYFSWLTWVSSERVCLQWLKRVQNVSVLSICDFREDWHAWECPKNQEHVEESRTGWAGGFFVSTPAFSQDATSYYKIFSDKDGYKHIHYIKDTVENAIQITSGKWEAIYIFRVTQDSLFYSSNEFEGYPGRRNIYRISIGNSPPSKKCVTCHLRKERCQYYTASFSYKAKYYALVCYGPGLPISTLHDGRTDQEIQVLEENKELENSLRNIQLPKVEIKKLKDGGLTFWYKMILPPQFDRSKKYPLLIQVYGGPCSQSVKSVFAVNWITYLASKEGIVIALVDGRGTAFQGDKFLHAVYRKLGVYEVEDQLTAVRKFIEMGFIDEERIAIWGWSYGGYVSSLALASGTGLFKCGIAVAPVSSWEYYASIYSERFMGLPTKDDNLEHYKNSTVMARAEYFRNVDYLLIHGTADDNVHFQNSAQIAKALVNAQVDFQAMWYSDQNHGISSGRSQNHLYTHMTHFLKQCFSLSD", "assay": "flow cytometry on CT26muFAP cells, which stably express murine FAP", "description": "as §2, §3, §4"}, "human EpCAM": {"target": "T5, human EpCAM (human, UniProt P16422 24-314)", "T5 construct": "Endogenous on KATO-III cells and stably expressed on NIH/3T3huEpCAM clone 44 cells; also called huEpCAM; KATO-III cells", "T5 sequence": "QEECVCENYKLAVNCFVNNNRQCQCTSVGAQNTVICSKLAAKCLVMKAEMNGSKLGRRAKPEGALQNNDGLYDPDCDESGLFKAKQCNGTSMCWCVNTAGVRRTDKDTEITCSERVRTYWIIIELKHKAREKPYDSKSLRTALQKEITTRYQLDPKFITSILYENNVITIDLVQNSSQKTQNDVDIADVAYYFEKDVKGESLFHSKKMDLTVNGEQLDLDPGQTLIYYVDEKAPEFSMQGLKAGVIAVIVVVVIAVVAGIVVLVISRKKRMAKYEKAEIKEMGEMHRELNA", "assay": "flow cytometry, huEpCAM+ KATO-III cells", "description": "For discrimination of live and dead cells, samples were stained with Zombie Aqua Viability Dye (Biolegend, Cat. No 423102) in PBS for 10 minutes at room temperature. Cells were then washed once with FACS buffer and subsequently stained for 90 minutes at 4° C. in the dark in 50 μL/well 4° C."}}, "data": [{"binder": "bispecific, tetravalent anti-human OX40, bivalent anti-human EpCAM 4+2 molecule (OX40 49B4/EpCAM 3-17I P329GLALA 4+2) (bispecific antibody, human IgG1, kappa, L234A L235A, huIgG1 P329G LALA, no knob-into-hole; also called 4+2 huEpCAM; 4 + 2 anti-huOX40, anti-huEpCAM) heavy: not shown light 1: DIQMTQSPSTLSASVGDRVTITCRASQSISSWLAWYQQKPGKAPKLLIYDASSLESGVPSRFSGSGSGTEFTLTISSLQPDDFATYYCQQYSSQPYTFGQGTKVEIKRTVAAPSVFIFPPSDRKLKSGTASVVCLLNNFYPREAKVQWKVDNALQSGNSQESVTEQDSKDSTYSLSSTLTLSKADYEKHKVYACEVTHQGLSSPVTKSFNRGEC light 2: QVQLVQSGAEVKKPGSSVKVSCKASGGTFSSYAISWVRQAPGQGLEWMGGIIPIFGTANYAQKFQGRVTITADESTSTAYMELSSLRSEDTAVYYCARGLLWNYWGQGTLVTVSSASVAAPSVFIFPPSDEQLKSGTASVVCLLNNFYPREAKVQWKVDNALQSGNSQESVTEQDSKDSTYSLSSTLTLSKADYEKHKVYACEVTHQGLSSPVTKSFNRGEC", "values": [{"measurement": "EC50", "setting": "human OX40 [1]", "value": 0.01, "unit": "nM"}, {"measurement": "EC50", "setting": "human OX40 [2]", "value": 0.04, "unit": "nM"}]}, {"binder": "anti-OX40 clone 20B7 (phage-derived Fab) (Fab, V domains shown, Tested as a Flag-tagged Fab in bacterial supernatant (DP88-4 library); also called OX40 (20B7)) VH: QVQLVQSGAEVKKPGSSVKVSCKASGGTFSSYAISWVRQAPGQGLEWMGGIIPIFGTANYAQKFQGRVTITADKSTSTAYMELSSLRSEDTAVYYCARVNYPYSYWGDFDYWGQGTTVTVSS VL: DIQMTQSPSTLSASVGDRVTITCRASQSISSWLAWYQQKPGKAPKLLIYDASSLESGVPSRFSGSGSGTEFTLTISSLQPDDFATYYCQQYQAFSLTFGQGTKVEIK", "values": [{"measurement": "binding result", "setting": "[3]", "value": "binds"}]}, {"binder": "anti-OX40 clone 49B4 (phage-derived Fab) (Fab, V domains shown, Tested as a Flag-tagged Fab in bacterial supernatant (DP88-4 library); also called OX40 (49B4)) VH: QVQLVQSGAEVKKPGSSVKVSCKASGGTFSSYAISWVRQAPGQGLEWMGGIIPIFGTANYAQKFQGRVTITADKSTSTAYMELSSLRSEDTAVYYCAREYYRGPYDYWGQGTTVTVSS VL: DIQMTQSPSTLSASVGDRVTITCRASQSISSWLAWYQQKPGKAPKLLIYDASSLESGVPSRFSGSGSGTEFTLTISSLQPDDFATYYCQQYSSQPYTFGQGTKVEIK", "values": [{"measurement": "binding result", "setting": "[3]", "value": "binds"}]}, {"binder": "monospecific, bivalent anti-murine EpCAM IgG (parental bivalent anti-muEpCAM antibody) (antibody, V domains shown, it was detected with anti-mouse IgG Fc; also called muEpCAM IgG; G8.8) VH: EVQLAESGGGLVQPGRSMKLSCAASGFTFSNFPMAWVRQAPTKGLEWVATISTSGGSTYYRDSVKGRFTISRDNAKSTLYLQMNSLRSEDTATYYCTRTLYILRVFYFDYWGQGVMVTVSS VL: DIQMTQSPASLSASLGETVSIECLASEGISNDLAWYQQKSGKSPQLLIYATSRLQDGVPSRFSGSGSGTRYSLKISGMQPEDEADYFCQQSYKYPWTFGGGTKLELK", "values": [{"measurement": "EC50", "setting": "murine EpCAM", "value": 2.87, "unit": "nM"}, {"measurement": "binding result", "setting": "murine FAP", "value": "no binding"}]}, {"binder": "anti-OX40 clone 17A9 (phage-derived Fab) (Fab, V domains shown, Tested as a Flag-tagged Fab in bacterial supernatant (lambda-DP47 library); also called OX40 (17A9)) VH: not shown VL: SSELTQDPAVSVALGQTVRITCQGDSLRSYYASWYQQKPGQAPVLVIYGKNNRPSGIPDRFSGSSSGNTASLTITGAQAEDEADYYCNSRVMPHNRVFGGGTKLTV", "values": [{"measurement": "binding result", "setting": "[3]", "value": "binds"}]}, {"binder": "monospecific, bivalent anti-human EpCAM IgG (parental bivalent anti-human EpCAM antibody, clone 3-17I, Affitech) (antibody, V domains shown, IgG; it was detected with an anti-human IgG secondary; also called huEpCAM IgG; 3-171) VH: QVQLVQSGAEVKKPGSSVKVSCKASGGTFSSYAISWVRQAPGQGLEWMGGIIPIFGTANYAQKFQGRVTITADESTSTAYMELSSLRSEDTAVYYCARGLLWNYWGQGTLVTVSS VL: EIVMTQSPATLSVSPGERATLSCRASQSVSSNLAWYQQKPGQAPRLIIYGASTTASGIPARFSASGSGTDFTLTISSLQSEDFAVYYCQQYNNWPPAYTFGQGTKLEIK", "values": [{"measurement": "EC50", "setting": "human EpCAM", "value": 3.11, "unit": "nM"}]}, {"binder": "anti-OX40 clone 1G4 (phage-derived Fab) (Fab, V domains shown, Tested as a Flag-tagged Fab in bacterial supernatant (DP88-4 library); also called OX40 (1G4)) VH: QVQLVQSGAEVKKPGSSVKVSCKASGGTFSSYAISWVRQAPGQGLEWMGGIIPIFGTANYAQKFQGRVTITADKSTSTAYMELSSLRSEDTAVYYCAREYGSMDYWGQGTTVTVSS VL: not shown", "values": [{"measurement": "binding result", "setting": "[3]", "value": "binds"}]}]}
